This is an account of results in US20120039802A1 (published 2012).

Assay [1] has as its target T1, cMet-Fc fusion protein (extracellular domain of the cMet receptor expressed as an Fc-fusion protein) (human, UniProt P08581 25-932).
T1 construct: extracellular domain; also called soluble cMet-Fc-fusion protein; soluble cMet receptor; not shown: Fc part
Kind of assay: phage ELISA on cMet-Fc, competitor HGF 100 ng/mL. The procedure:
(§1) These assays were conducted using the peptide-displaying phage discovered from the initial selection and screening campaigns using the first generation peptide libraries. Briefly, 96-well plates were coated overnight at 4 C with 0.5 μg/mL of cMet-Fc fusion protein or TRAIL-Fc fusion protein (background). The plates were blocked for 2 hours at 37 C with 3% BSA in PBST. […] This was followed by an addition of 30 μL of peptide-displaying phage overnight culture to each well. The plates were incubated for 2 hours at room temperature, washed with PBST and cMet-binding peptide-displaying phage was detected using an HRP-conjugated anti-M13 antibody.
In general terms: ELISA stands for enzyme-linked immunosorbent assay.

Assay [2] has as its target T2, human cMet expressed on 3T3 cells (human, UniProt P08581 25-1390).
T2 construct: whole, on cells; cells fixed with glutaraldehyde; also called cell surface-expressed human cMet; 3T3 cells that over-express human cMet
Kind of assay: whole cell phage ELISA, 3T3 human cMet vs 3T3. Here is the method: Whole cell ELISAs were performed using 3T3 cells that over-express human cMet. […] Briefly, 96-well plates were seeded with 10⁵ cells per well. The plates were centrifuged for 5 minutes at 1600 rpm to pellet the cells. The resulting cell layer was fixed with 0.1% (v/v) glutaraldehyde for 12 minutes at 37 C. […] Peptide-displaying phage also were blocked in the above solution for 1 hour at 37 C. 100 μL of blocked phage was then added to each well and the plates were incubated for 1 hour at room temperature. The plates were washed with PBST. cMet-binding peptide-displaying phage were detected using an HRP-conjugated anti-M13 antibody.

Assay [3] has as its target T1, cMet-Fc fusion protein (extracellular …). The assay can be described thus: phage ELISA on cMet-Fc, competitor HGF 500 ng/mL. The procedure:
as §1

The target is the same in assay [4]. The assay can be described thus: phage ELISA, cMet-Fc vs TRAIL-Fc. Here is the method: Protein phage ELISAs using peptide-displaying phage isolates from the various selection campaigns were performed to determine specificity of the peptides for cMet versus an unrelated Fc-fusion protein (TRAIL-Fe). Briefly, 384-well plates were coated overnight at 4 C with 0.5 μg/mL of cMet-Fc fusion protein or TRAIL-Fc fusion protein (background). The plates were blocked for 2 hours 37 C with 3% (w/v) BSA in PBS containing 0.05% (v/v) Tween-20 (PBST). The plates were washed with PBST and 100 μL of peptide-displaying phage were added to each well. The plates were incubated for 2 hours at room temperature and washed with PBST. cMet-binding peptide-displaying phage were detected using an HRP-conjugated anti-M13 antibody.

T1 sequence (P08581 25-932): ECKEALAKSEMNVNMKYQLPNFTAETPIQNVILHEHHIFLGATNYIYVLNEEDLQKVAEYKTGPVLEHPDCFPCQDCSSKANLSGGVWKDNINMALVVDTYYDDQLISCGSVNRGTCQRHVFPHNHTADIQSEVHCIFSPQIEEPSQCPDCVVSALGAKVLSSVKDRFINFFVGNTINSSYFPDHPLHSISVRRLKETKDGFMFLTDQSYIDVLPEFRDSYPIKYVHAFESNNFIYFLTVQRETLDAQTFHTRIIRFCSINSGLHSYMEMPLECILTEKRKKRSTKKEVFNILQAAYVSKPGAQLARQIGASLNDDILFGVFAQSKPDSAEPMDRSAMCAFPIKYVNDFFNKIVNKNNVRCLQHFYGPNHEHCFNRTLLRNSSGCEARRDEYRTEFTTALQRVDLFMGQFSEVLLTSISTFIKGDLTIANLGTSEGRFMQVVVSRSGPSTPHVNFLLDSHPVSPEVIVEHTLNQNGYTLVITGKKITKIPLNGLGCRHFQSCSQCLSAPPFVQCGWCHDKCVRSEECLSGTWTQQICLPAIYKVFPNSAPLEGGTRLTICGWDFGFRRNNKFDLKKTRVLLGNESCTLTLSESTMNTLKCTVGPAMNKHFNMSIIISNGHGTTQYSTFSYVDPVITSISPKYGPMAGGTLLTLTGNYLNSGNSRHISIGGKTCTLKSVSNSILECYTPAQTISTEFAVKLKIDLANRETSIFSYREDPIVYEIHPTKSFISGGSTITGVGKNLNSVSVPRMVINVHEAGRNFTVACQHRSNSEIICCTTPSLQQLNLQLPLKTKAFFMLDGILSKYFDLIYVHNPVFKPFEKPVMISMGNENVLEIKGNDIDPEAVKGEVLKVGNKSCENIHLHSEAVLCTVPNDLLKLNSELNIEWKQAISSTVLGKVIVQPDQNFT
T2 sequence (P08581 25-1390): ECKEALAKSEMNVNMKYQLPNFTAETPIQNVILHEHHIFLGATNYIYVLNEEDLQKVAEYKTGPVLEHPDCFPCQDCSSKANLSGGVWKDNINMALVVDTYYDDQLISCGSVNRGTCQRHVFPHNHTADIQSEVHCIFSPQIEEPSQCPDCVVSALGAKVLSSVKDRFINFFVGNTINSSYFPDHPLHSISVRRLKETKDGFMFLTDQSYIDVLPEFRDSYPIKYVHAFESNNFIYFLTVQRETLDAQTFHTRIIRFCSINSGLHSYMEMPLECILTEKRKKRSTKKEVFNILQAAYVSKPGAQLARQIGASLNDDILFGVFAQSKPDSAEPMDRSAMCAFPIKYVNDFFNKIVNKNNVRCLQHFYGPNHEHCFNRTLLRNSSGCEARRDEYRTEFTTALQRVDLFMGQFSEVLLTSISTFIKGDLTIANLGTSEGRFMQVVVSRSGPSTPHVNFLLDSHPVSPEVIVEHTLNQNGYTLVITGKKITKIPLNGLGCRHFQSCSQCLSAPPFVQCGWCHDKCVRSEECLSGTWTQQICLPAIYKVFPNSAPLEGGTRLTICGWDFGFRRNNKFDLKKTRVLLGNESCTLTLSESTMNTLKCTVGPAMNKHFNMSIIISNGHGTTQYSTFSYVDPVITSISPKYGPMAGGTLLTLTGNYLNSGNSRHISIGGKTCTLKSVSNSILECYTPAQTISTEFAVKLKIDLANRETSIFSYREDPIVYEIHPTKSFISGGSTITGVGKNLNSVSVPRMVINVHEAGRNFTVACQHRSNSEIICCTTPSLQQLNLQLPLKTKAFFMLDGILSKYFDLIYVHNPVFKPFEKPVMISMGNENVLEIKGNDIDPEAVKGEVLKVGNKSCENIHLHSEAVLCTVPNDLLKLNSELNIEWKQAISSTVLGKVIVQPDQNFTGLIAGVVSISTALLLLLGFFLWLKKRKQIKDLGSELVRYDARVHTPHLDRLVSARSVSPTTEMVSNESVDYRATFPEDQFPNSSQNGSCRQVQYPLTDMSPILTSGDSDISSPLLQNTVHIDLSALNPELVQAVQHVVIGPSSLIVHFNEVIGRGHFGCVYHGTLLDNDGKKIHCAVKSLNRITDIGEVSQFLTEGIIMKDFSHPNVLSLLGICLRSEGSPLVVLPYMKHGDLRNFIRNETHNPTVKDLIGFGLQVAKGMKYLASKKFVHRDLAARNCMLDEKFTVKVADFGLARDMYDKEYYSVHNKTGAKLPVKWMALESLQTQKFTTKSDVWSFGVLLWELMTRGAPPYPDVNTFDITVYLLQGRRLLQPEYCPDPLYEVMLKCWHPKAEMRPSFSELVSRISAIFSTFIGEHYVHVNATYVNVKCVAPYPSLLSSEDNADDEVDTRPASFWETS

As to GSHHTCLDGFAGWRCTEVAP [546-E02 peptide-displaying phage (SEQ ID NO: 366)], the “% of binding in the absence of HGF” value in assay [1] is 74%.

In the case of AGTLSCSEEYKSCQLQGT [465-E09 peptide-displaying phage (SEQ ID NO: 027)], the “WC ELISA (fold over background)” value in assay [2] worked out at 1.3 fold. Further, the “% of binding in the absence of HGF” value in assay [1] was determined as 60%; in assay [3], 77%. For the same molecule, the “Protein ELISA (fold over background)” value in assay [4] is 3.6 fold.

With AGTIRCNLAMMVCMFEGT [444-B08 peptide-displaying phage (SEQ ID NO: 028)], in assay [2], the “WC ELISA (fold over background)” value worked out at 1.43 fold. Further, the “% of binding in the absence of HGF” value came out at 111% in assay [1] and 93% in assay [3]. The “Protein ELISA (fold over background)” value in assay [4] is 3.6 fold.

AGIWFCNNEEKSCWAYGT [471-A11 peptide-displaying phage (SEQ ID NO: 040)]: the “WC ELISA (fold over background)” value in assay [2] was determined as 1.37 fold. For the same molecule, the “% of binding in the absence of HGF” value was 85% in assay [1] and 80% in assay [3]. Further, the “Protein ELISA (fold over background)” value in assay [4] was 3 fold.

On to AGKYMCEGFEWFCEMWGT [442-E08 peptide-displaying phage (SEQ ID NO: 037)], for which the “WC ELISA (fold over background)” value in assay [2] came out at 1.43 fold. The figures for the “% of binding in the absence of HGF” value in assay [1] and in assay [3] were 81% and 75%, respectively. The “Protein ELISA (fold over background)” value in assay [4] turned out to be 4.1 fold.

Turning to AGHFECPKHQYMCDMPGT [465-D04 peptide-displaying phage (SEQ ID NO: 042)], the “WC ELISA (fold over background)” value in assay [2] was 1.23 fold. Also, the “% of binding in the absence of HGF” value turned out to be 77% in assay [1] and 31% in assay [3]. For the same molecule, in assay [4], the “Protein ELISA (fold over background)” value was found to be 3.1 fold.

As for AGGHWCLELKHLCPPYGT [465-B06 peptide-displaying phage (SEQ ID NO: 044)], the “WC ELISA (fold over background)” value in assay [2] stood at 1.23 fold. Also, the entries for the “% of binding in the absence of HGF” value in assay [1] and in assay [3] were 89% and 57%, respectively. For the same molecule, in assay [4], the “Protein ELISA (fold over background)” value came out at 4.1 fold.

On to AGMDFCEGFWFLCIGNAT [571-C11 peptide-displaying phage (SEQ ID NO: 035)], for which the “WC ELISA (fold over background)” value in assay [2] stood at 1.23 fold. The “% of binding in the absence of HGF” value was determined as 107% in assay [1] and 72% in assay [3]. In assay [4], the “Protein ELISA (fold over background)” value amounted to 3.5 fold.

On to AGPYSCHSESHDCKLMGT [465-C01 peptide-displaying phage (SEQ ID NO: 032)], for which the “WC ELISA (fold over background)” value in assay [2] was 1.27 fold. Further, the “% of binding in the absence of HGF” value in assay [1] is 267%; in assay [3], 23%. The “Protein ELISA (fold over background)” value in assay [4] worked out at 3.2 fold.

On to AGQMWCAEKNSKCYQWGT [465-D12 peptide-displaying phage (SEQ ID NO: 030)], for which the “WC ELISA (fold over background)” value in assay [2] was 1.27 fold. Also, the “% of binding in the absence of HGF” value in assay [1] is 34%; in assay [3] it was 0%. Besides, in assay [4], the “Protein ELISA (fold over background)” value amounted to 3.2 fold.

For AGPLFCFEWPSLCHWGGT [448-H02 peptide-displaying phage (SEQ ID NO: 033)], the “WC ELISA (fold over background)” value in assay [2] was 1.43 fold. In addition, the “% of binding in the absence of HGF” value in assay [1] was 113%; in assay [3] it was 92%. In assay [4], the “Protein ELISA (fold over background)” value is 3.8 fold.

For the molecule AGQYLCTQAALGCPEWGT [465-E11 peptide-displaying phage (SEQ ID NO: 029)], the “WC ELISA (fold over background)” value in assay [2] is 1.23 fold. Also, the figures for the “% of binding in the absence of HGF” value in assay [1] and in assay [3] were 33% and 124%, respectively. Moreover, the “Protein ELISA (fold over background)” value in assay [4] was determined as 4.3 fold.

On to GSMLMCELWWCRFLAP [569-H10 peptide-displaying phage (SEQ ID NO: 004)], for which the “WC ELISA (fold over background)” value in assay [2] worked out at 1.27 fold. The “% of binding in the absence of HGF” value in assay [1] turned out to be 98%; in assay [3] it was 83%. The “Protein ELISA (fold over background)” value in assay [4] was found to be 3.4 fold.

With AGLLGCWDMPMECTGEGT [465-B11 peptide-displaying phage (SEQ ID NO: 036)], the “WC ELISA (fold over background)” value in assay [2] was 1.27 fold. The “% of binding in the absence of HGF” value in assay [1] was determined as 97%; in assay [3], 89%. For the same molecule, the “Protein ELISA (fold over background)” value in assay [4] came out at 3.6 fold.

As for AGFWDCGWMMQDCHMHGT [470-C02 peptide-displaying phage (SEQ ID NO: 045)], the “WC ELISA (fold over background)” value in assay [2] worked out at 1.33 fold. Moreover, the results for the “% of binding in the absence of HGF” value in assay [1] and in assay [3] were 340% and 227%, respectively. Further, the “Protein ELISA (fold over background)” value in assay [4] amounted to 3.9 fold.

As to AGWTWCDLSMMSCIFHGT [573-E07 peptide-displaying phage (SEQ ID NO: 025)], the “WC ELISA (fold over background)” value in assay [2] stood at 1.37 fold. Further, the “% of binding in the absence of HGF” value turned out to be 77% in assay [1] and 82% in assay [3]. For the same molecule, the “Protein ELISA (fold over background)” value in assay [4] came out at 3.2 fold.

With GSPEMCMMFPFLYPCNHHAP [548-F07 peptide-displaying phage (SEQ ID NO: 369)], the “% of binding in the absence of HGF” value in assay [3] is 37%.

In the case of GSWRFCGGEYSFQVCQDVAP [545-C02 peptide-displaying phage (SEQ ID NO: 365)], the “% of binding in the absence of HGF” value in assay [3] is 31%.

On to AGHTICQHKALGCPANGT [465-C07 peptide-displaying phage (SEQ ID NO: 041)], for which the “WC ELISA (fold over background)” value in assay [2] was 1.27 fold. Also, the “% of binding in the absence of HGF” value in assay [1] was 102%; in assay [3] it was 138%. For the same molecule, in assay [4], the “Protein ELISA (fold over background)” value turned out to be 3.1 fold.

With AGVTNCNLSTMFCFLHGT [465-F08 peptide-displaying phage (SEQ ID NO: 026)], the “WC ELISA (fold over background)” value in assay [2] came out at 1.3 fold. In addition, the “% of binding in the absence of HGF” value is 68% in assay [1] and 116% in assay [3]. The “Protein ELISA (fold over background)” value in assay [4] worked out at 3.8 fold.

Regarding AGNLPCHWNMSVCDHQGT [465-D01 peptide-displaying phage (SEQ ID NO: 034)], the “WC ELISA (fold over background)” value in assay [2] stood at 1.3 fold. For the same molecule, the figures for the “% of binding in the absence of HGF” value in assay [1] and in assay [3] were 235% and 134%, respectively. The “Protein ELISA (fold over background)” value in assay [4] came out at 3.3 fold.

AGQAVCEWGPFWCQMQGT [470-A02 peptide-displaying phage (SEQ ID NO: 031)]: the “WC ELISA (fold over background)” value in assay [2] turned out to be 1.3 fold. The “% of binding in the absence of HGF” value turned out to be 78% in assay [1] and 62% in assay [3]. For the same molecule, the “Protein ELISA (fold over background)” value in assay [4] is 3.2 fold.

For AGKTVCQKWESVCSGMGT [465-C11 peptide-displaying phage (SEQ ID NO: 038)], the “WC ELISA (fold over background)” value in assay [2] is 1.3 fold. The “% of binding in the absence of HGF” value in assay [1] came out at 41%; in assay [3] it was 4%. Besides, in assay [4], the “Protein ELISA (fold over background)” value was found to be 3.1 fold.

For AGGNWCSFYEELCEWLGT [445-E04 peptide-displaying phage (SEQ ID NO: 043)], the “WC ELISA (fold over background)” value in assay [2] came out at 1.37 fold. The “% of binding in the absence of HGF” value was found to be 127% in assay [1] and 102% in assay [3]. Besides, the “Protein ELISA (fold over background)” value in assay [4] was determined as 4.2 fold.

AGKQWCVVWEETCDQLGT [465-F10 peptide-displaying phage (SEQ ID NO: 039)]: the “WC ELISA (fold over background)” value in assay [2] came to 1.33 fold. Moreover, the “% of binding in the absence of HGF” value came out at 61% in assay [1] and 42% in assay [3]. In addition, the “Protein ELISA (fold over background)” value in assay [4] worked out at 3.7 fold.

For the molecule AGETVCYWLNGWFCVDDGT [274-B07 peptide-displaying phage (SEQ ID NO: 073)], in assay [2], the “WC ELISA (fold over background)” value came out at 1.1 fold. Besides, the “% of binding in the absence of HGF” value in assay [3] turned out to be 296%. In assay [4], the “Protein ELISA (fold over background)” value was 7.8 fold.

For GSSHLCNPEFCHFTAP [465-D09 peptide-displaying phage (SEQ ID NO: 003)], in assay [2], the “WC ELISA (fold over background)” value turned out to be 1.3 fold. The “% of binding in the absence of HGF” value came to 90% in assay [1] and 70% in assay [3]. Moreover, the “Protein ELISA (fold over background)” value in assay [4] stood at 3.2 fold.
